This is an account of results in US20220282283, “NOVEL CRISPR DNA TARGETING ENZYMES AND SYSTEMS” (ARBOR BIOTECHNOLOGIES, INC., published 2022).

Data set [1] concerns the target T1, CLUST.143952 3300028591 effector (Ga0247611_10000032_233) (uncultured metagenome (sheep rumen)).
T1 chain: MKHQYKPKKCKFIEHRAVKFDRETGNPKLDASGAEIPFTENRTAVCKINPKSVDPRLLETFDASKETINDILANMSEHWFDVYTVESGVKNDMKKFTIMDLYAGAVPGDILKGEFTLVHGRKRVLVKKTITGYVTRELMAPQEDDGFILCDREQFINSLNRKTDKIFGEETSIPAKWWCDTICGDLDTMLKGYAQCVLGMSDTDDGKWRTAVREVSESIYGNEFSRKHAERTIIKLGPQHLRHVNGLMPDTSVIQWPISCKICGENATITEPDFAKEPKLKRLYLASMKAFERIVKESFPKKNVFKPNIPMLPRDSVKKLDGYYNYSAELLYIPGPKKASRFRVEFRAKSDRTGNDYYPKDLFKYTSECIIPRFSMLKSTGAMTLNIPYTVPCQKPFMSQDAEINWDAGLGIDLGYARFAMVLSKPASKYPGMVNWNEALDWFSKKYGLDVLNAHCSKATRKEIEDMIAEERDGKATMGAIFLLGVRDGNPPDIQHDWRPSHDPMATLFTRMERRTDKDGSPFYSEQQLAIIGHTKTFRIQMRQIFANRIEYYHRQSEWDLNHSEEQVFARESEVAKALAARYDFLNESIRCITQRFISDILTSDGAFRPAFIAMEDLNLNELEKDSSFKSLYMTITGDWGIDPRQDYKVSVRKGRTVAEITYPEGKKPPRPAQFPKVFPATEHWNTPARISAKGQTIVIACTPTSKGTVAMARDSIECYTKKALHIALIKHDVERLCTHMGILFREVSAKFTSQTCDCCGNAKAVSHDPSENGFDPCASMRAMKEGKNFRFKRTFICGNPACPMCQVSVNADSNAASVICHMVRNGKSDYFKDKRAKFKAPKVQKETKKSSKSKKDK
Kind of data set: PAM 5'-G-3'; 37 C, in vitro transcription/translation; ratio normalised to non-target guide (SEQ 93). The settings on record: tags: FDA assay, one-pot in vitro transcription/translation. An excerpt:
(§1) In this assay, an active CRISPR system designed to target GFP binds and cleaves the double-stranded DNA region encoding GFP, resulting in depletion of GFP fluorescence. The FDA assay involves in vitro transcription and translation, allowing production of an RNP from a DNA template encoding a CLUST.143952 effector and a DNA template containing a pre-crRNA sequence under a T7 promoter with direct repeat (DR)-spacer-direct repeat (DR); the spacer targeted GFP. In the same one-pot reaction, GFP and RFP were also produced as both the target and the fluorescence reporter (FIG. 8A). The target GFP plasmid sequence is set forth in SEQ ID NO: 86, and the RFP plasmid sequence is set forth in SEQ ID NO: 87. GFP and RFP fluorescence values were measured every 20 min at 37° C. for 12 hr, using a TECAN Infinite F Plex plate reader. Since RFP was not targeted, its fluorescence was not affected and was therefore used as an internal signal control.
(§2) 2 GFP targets (plus 2 non-targets) were designed for the effector of SEQ ID NO: 1. RNA guide sequences (pre-crRNAs for Target 1 and Non-Target 2 and mature crRNAs for Target 3 and Non-Target 4), target sequences, and the non-target control sequences used for the FDA assay are listed in TABLE 9. […]
(§3) GFP signal was normalized to RFP signal, then the average fluorescence of three technical replicates was taken at each time point. […]

The target of data set [2] is T1, CLUST.143952 3300028591 effector …. Kind of data set: PAM 5'-G-3'; 37 C, in vitro transcription/translation; ratio normalised to non-target guide (SEQ 90). The settings on record: tags: FDA assay, one-pot in vitro transcription/translation.
Description: as §1, §2, §3

B1: mature crRNA Target 3 ; GFP Target 3 (ssRNA ; dsDNA)
RNA: UAUGGUAGAGGUGCCACCGGUUUACAUGGCGCCGAUACCAAGGUAUGAAAUUUAUCAUUAAAG
DNA 1: AAGGTATGAAATTTATCATTAAAG
DNA 2: CTTTAATGATAAATTTCATACCTT
For the molecule B1, the activity in data set [1] was > 1 GFP depletion ratio.

B2: pre-crRNA Target 1 (DR-spacer-DR) ; GFP Target 1 (ssRNA ; dsDNA)
RNA: UAUGGUAGAGGUGCCACCGGUUUACAUGGCGCCGAUACCAAGGUAUGAAAUUUAUCAUUAAAGGCGUAUGGUAGAGGUGCCACCGGUUUACAUGGCGCCGAUACCUAACCCCUCUCUAAACGGAGGGGUUU
DNA 1: AAGGTATGAAATTTATCATTAAAGGCG
DNA 2: CGCCTTTAATGATAAATTTCATACCTT
Regarding B2, the activity in data set [2] is > 1 GFP depletion ratio.
